± gives the uncertainty stated by the source.
B1: Far upstream element-binding protein 2, residues 142 to 214; numbered along this chain, Q92945 (parent)
chain: RTSMTEEYRVPDGMVGLIIGRGGEQINKIQQDSGCKVQISPDSGGLPERSVSLTGAPESVQKAKMMLDDIVSR

Variants of: B1
Experiment: abundance fitness (aPCA) (normalised: wild type 0, dead -1); higher = more abundant; growth selection in yeast, the domain comes from the species named
Conditions: Homo sapiens

Abundance fitness of substitutions, site by site:
I19: R -0.091 ± 0.044 | E -0.103 ± 0.076 | D -0.179 ± 0.076 | G -0.146 ± 0.054 | H -0.17 ± 0.073 | F -0.098 ± 0.083 | A -0.096 ± 0.048 | Q -0.105 ± 0.061 | M 0.096 ± 0.068 | V -0.016 ± 0.049 | P -0.35 ± 0.051 | L 0.008 ± 0.045 | N -0.029 ± 0.097 | W -0.144 ± 0.07 | Y 0.005 ± 0.081 | C -0.114 ± 0.078 | K -0.01 ± 0.072
E24: F -0.03 ± 0.086 | T -0.071 ± 0.058 | P -0.797 ± 0.071 | V -0.092 ± 0.042 | L -0.199 ± 0.047 | R -0.03 ± 0.04 | W 0.666 ± 0.048 | H -0.019 ± 0.09 | M -0.059 ± 0.069 | K -0.078 ± 0.058 | Y 0.05 ± 0.11 | D -0.104 ± 0.067 | N -0.106 ± 0.11 | G -0.215 ± 0.039 | S -0.076 ± 0.047 | A -0.112 ± 0.045 | I -0.251 ± 0.11
Q31: K -0.137 ± 0.08 | E -0.08 ± 0.058 | P -0.98 ± 0.065 | D -0.16 ± 0.081 | F -0.105 ± 0.096 | W -0.316 ± 0.054 | T 0.015 ± 0.057 | M -0.073 ± 0.071 | V -0.207 ± 0.05 | S -0.136 ± 0.048 | I -0.135 ± 0.097 | A -0.109 ± 0.046 | R -0.069 ± 0.039 | H -0.005 ± 0.087
G20: S -0.298 ± 0.043 | Q -0.4 ± 0.061 | M -0.805 ± 0.087 | C -1.28 ± 0.11 | V -1.38 ± 0.076 | K -0.401 ± 0.062 | H -0.576 ± 0.099 | N -0.389 ± 0.1 | P -0.576 ± 0.053 | W -0.96 ± 0.067 | D -0.086 ± 0.065 | F -1.01 ± 0.14 | R -0.428 ± 0.042 | L -1.07 ± 0.059 | T -0.59 ± 0.059 | I -1.09 ± 0.18
V15: R -0.335 ± 0.05 | I -0.06 ± 0.079 | L 0.068 ± 0.05 | C -0.22 ± 0.077 | P -0.462 ± 0.064 | F -0.076 ± 0.088 | T -0.227 ± 0.059 | N -0.376 ± 0.13 | H -0.214 ± 0.1 | Q -0.272 ± 0.06 | G -0.282 ± 0.058 | D -0.217 ± 0.081 | M 0.035 ± 0.073 | E -0.03 ± 0.065 | S -0.219 ± 0.053 | W -0.081 ± 0.063 | Y -0.197 ± 0.092 | A -0.053 ± 0.058 | K -0.251 ± 0.085
R21: K 0.056 ± 0.051 | C -0.012 ± 0.055 | T -0.004 ± 0.043 | N 0.074 ± 0.069 | M -0.002 ± 0.047 | Q -0.015 ± 0.045 | I -0.191 ± 0.06 | S 0.02 ± 0.039 | L 0.042 ± 0.037 | G -0.043 ± 0.036 | P 0.008 ± 0.042 | F -0.146 ± 0.065 | A 0.026 ± 0.039 | Y -0.148 ± 0.06 | D 0.133 ± 0.055 | V -0.068 ± 0.037 | W -0.353 ± 0.045 | E 0.088 ± 0.04
K28: W -0.51 ± 0.051 | C -0.597 ± 0.082 | G -0.507 ± 0.039 | M -0.085 ± 0.062 | N -0.256 ± 0.16 | R 0.002 ± 0.036 | E -0.243 ± 0.065 | A -0.144 ± 0.048 | F -0.4 ± 0.11 | V -0.419 ± 0.046 | Y -0.337 ± 0.14 | D -0.431 ± 0.083 | H -0.162 ± 0.077 | P -0.751 ± 0.069 | T -0.209 ± 0.064 | L -0.239 ± 0.044 | I -0.269 ± 0.11
I26: K -0.352 ± 0.068 | V -0.146 ± 0.05 | P -0.639 ± 0.065 | W -0.215 ± 0.11 | H -0.485 ± 0.091 | Y -0.769 ± 0.23 | N -0.852 ± 0.17 | G -0.641 ± 0.04 | D -0.549 ± 0.082 | R -0.533 ± 0.039 | C -0.524 ± 0.29 | E -0.685 ± 0.061 | T -0.451 ± 0.061 | Q -0.35 ± 0.06 | M -0.054 ± 0.086 | F -0.492 ± 0.11 | A -0.394 ± 0.048 | S -0.693 ± 0.055
I29: Q -0.841 ± 0.071 | F -0.682 ± 0.11 | M -0.524 ± 0.061 | N -0.869 ± 0.14 | R -0.995 ± 0.046 | E -0.736 ± 0.064 | T -0.745 ± 0.065 | H -0.984 ± 0.11 | K -0.787 ± 0.078 | S -0.819 ± 0.056 | A -0.811 ± 0.053 | W -0.981 ± 0.063 | P -0.849 ± 0.071 | G -0.856 ± 0.044 | Y -0.971 ± 0.11 | V -0.185 ± 0.041
D12: P 0.051 ± 0.053 | V -0.097 ± 0.046 | Y -0.204 ± 0.071 | Q -0.039 ± 0.058 | T 0.105 ± 0.059 | K -0.032 ± 0.061 | S 0.054 ± 0.048 | R 0.088 ± 0.043 | W -0.524 ± 0.062 | N -0.14 ± 0.079
M14: F -0.349 ± 0.071 | G -0.361 ± 0.04 | Y -0.19 ± 0.073 | E -0.208 ± 0.047 | W -0.319 ± 0.05 | I -0.003 ± 0.065 | P -0.898 ± 0.063 | A -0.111 ± 0.042 | N -0.148 ± 0.069 | S -0.219 ± 0.042 | L -0.048 ± 0.04 | K -0.017 ± 0.053 | T -0.21 ± 0.047 | V -0.094 ± 0.042 | Q -0.243 ± 0.046 | R -0.314 ± 0.038 | H -0.235 ± 0.063 | D -0.209 ± 0.06
I18: F -0.122 ± 0.071 | D -0.312 ± 0.063 | N -0.345 ± 0.068 | K -0.333 ± 0.052 | T -0.282 ± 0.052 | V -0.158 ± 0.041 | G -0.363 ± 0.037 | C -0.595 ± 0.066 | P -0.324 ± 0.055 | S -0.398 ± 0.046 | M -0.17 ± 0.055 | L 0.035 ± 0.042 | Q -0.346 ± 0.054 | E -0.287 ± 0.054 | A -0.276 ± 0.042 | Y -0.494 ± 0.079 | W -0.562 ± 0.049 | H -0.51 ± 0.072
G16: D 0.136 ± 0.064 | F -0.499 ± 0.1 | K -0.068 ± 0.056 | L -0.495 ± 0.049 | T -0.101 ± 0.052 | P -0.015 ± 0.046 | R -0.078 ± 0.038 | A -0.037 ± 0.043 | Q -0.034 ± 0.056 | E 0.049 ± 0.053 | H -0.019 ± 0.075 | C -0.334 ± 0.06 | S -0.076 ± 0.043 | V -0.619 ± 0.048 | N -0.093 ± 0.089 | I -0.994 ± 0.12 | W -0.229 ± 0.056
Q25: L -0.039 ± 0.046 | G 0.005 ± 0.037 | E 0.004 ± 0.053 | Y -0.06 ± 0.16 | S -0.067 ± 0.05 | P -0.264 ± 0.052 | V -0.019 ± 0.053 | I -0.015 ± 0.11 | A -0.004 ± 0.043 | K -0.158 ± 0.068 | H -0.256 ± 0.099 | W -0.17 ± 0.076 | M -0.127 ± 0.095 | T 0.022 ± 0.058 | C -0.099 ± 0.12 | F -0.181 ± 0.13
L17: S -0.021 ± 0.047 | A 0.016 ± 0.047 | Y -0.147 ± 0.089 | T 0.045 ± 0.053 | W -0.111 ± 0.05 | P -0.199 ± 0.051 | I -0.045 ± 0.083 | G -0.023 ± 0.043 | D 0.061 ± 0.064 | H -0.087 ± 0.084 | N -0.119 ± 0.087 | F -0.072 ± 0.078 | C -0.118 ± 0.08 | E 0.074 ± 0.051 | K -0.059 ± 0.056 | V -0.113 ± 0.048 | Q -0.028 ± 0.059
N27: M -0.085 ± 0.069 | K 0.013 ± 0.057 | I -0.109 ± 0.086 | F -0.081 ± 0.097 | A -0.095 ± 0.048 | P -0.476 ± 0.051 | E -0.006 ± 0.078 | S -0.054 ± 0.044 | H -0.094 ± 0.077 | W -0.209 ± 0.045 | T 0.007 ± 0.049 | Q -0.018 ± 0.053 | G -0.137 ± 0.044 | D -0.029 ± 0.1 | L -0.076 ± 0.043 | R 0.017 ± 0.035
Q30: A -0.067 ± 0.042 | K -0.181 ± 0.065 | D -1.02 ± 0.095 | C -0.12 ± 0.069 | T -0.17 ± 0.053 | H -0.384 ± 0.088 | R -0.066 ± 0.038 | W -0.507 ± 0.057 | P -0.809 ± 0.063 | F -0.252 ± 0.11 | E -0.067 ± 0.053 | Y -0.866 ± 0.28 | G -0.24 ± 0.038 | L -0.241 ± 0.049 | M 0.107 ± 0.066 | S -0.078 ± 0.047 | V -0.132 ± 0.044 | N -0.455 ± 0.11
G23: A -0.149 ± 0.048 | N -0.241 ± 0.12 | T -0.27 ± 0.067 | K -0.177 ± 0.068 | Y -0.393 ± 0.2 | F -0.3 ± 0.11 | L -0.169 ± 0.049 | Q -0.126 ± 0.064 | R -0.11 ± 0.039 | V -0.257 ± 0.047 | C -0.212 ± 0.065 | S -0.178 ± 0.05 | W -0.32 ± 0.051 | M -0.141 ± 0.07 | D -0.187 ± 0.084 | P -0.314 ± 0.059
G22: P -0.572 ± 0.056 | W -0.308 ± 0.051 | C -0.204 ± 0.057 | D -0.027 ± 0.066 | E -0.071 ± 0.055 | H -0.234 ± 0.084 | N -0.167 ± 0.1 | L -0.234 ± 0.044 | Q -0.026 ± 0.055 | S -0.148 ± 0.047 | Y -0.226 ± 0.083 | R -0.032 ± 0.039 | A -0.126 ± 0.045 | I -0.34 ± 0.082 | T -0.192 ± 0.06 | M -0.115 ± 0.062 | V -0.312 ± 0.047 | K -0.12 ± 0.07
G13: F -0.184 ± 0.091 | S 0.122 ± 0.041 | Q 0.09 ± 0.051 | C -0.127 ± 0.056 | R 0.07 ± 0.037 | V -0.389 ± 0.047 | E 0.12 ± 0.051 | I -0.039 ± 0.08 | Y -0.005 ± 0.091 | D 0.134 ± 0.061 | M -0.052 ± 0.055 | N 0.18 ± 0.062 | W -0.097 ± 0.051 | P -0.124 ± 0.046 | K 0.066 ± 0.055 | T 0.035 ± 0.046 | A -0.072 ± 0.044 | L -0.174 ± 0.044

— the Human Domainome abundance scans (Beltran et al. 2025)
